Laboratory results taken from US20200038523A1 (TECHNISCHE UNIVERSIT T M NCHEN, published 2020).

B1: Anticalin candidate A2 (designed binder)
chain: QDSTSDLIPAPPLSKVPLQQNFQDNQFHGKWYVVGRAGNKPLREDKDPLKMWATIYELKEDKSYNVTIVWFDFKKCWYRISTFVPGSQPGEFTLGRIKSAPGVTSGLVRVVSTNYNQHAMVFFKYVFQNREWFHITLYGRTKELTSELKENFIRFSKSLGLPENHIVFPVPIDQCIDG
notes: not shown: C-terminal Strep-tag II
B2: Anticalin candidate H5 (designed binder)
chain: QDSTSDLIPAPPLSKVPLQQNFQDNQFHGKWYVVGTAGNWPLREDKDPHKMSATIYELKEDKSYNVTNVQFSSKKCLYFIGTFVPGSQPGEFTLGPIKSAPGQTSGLVRVVSTNYNQHAMVFFKQVIQNREAFIITLYGRTKELTSELKENFIRFSKSLGLPENHIVFPVPIDQCIDG
notes: as for B1

Biological target: T1, rhPSMA, extracellular part of human prostate-specific membrane antigen (residues 44-750) with native … (human, UniProt Q04609 44-750)
T1 construct: range 44-750; Secreted from Schneider S2 insect cells, glycosylated; also called wild-type rhPSMA; rhGCPII
Test: ELISA: rhPSMA coated on MaxiSorp plate, Anticalin dilution series, detection via Strep-tag II with StrepTactin/AP, absorbance at 405 nm
Text: Binding activities of Anticalins selected from the original nave library (A) or resulting from subsequent affinity maturation of the A3 variant (B) were compared in an ELISA. A 96-well MaxiSorp plate was coated with rhPSMA (or ovalbumin as a negative control, not shown) and purified Anticalin variants were applied in dilution series. Anticalin binding was detected using StrepTactin/AP conjugate, followed by chromogenic reaction. Absorption was plotted against the Anticalin concentration and data were analyzed by curve fitting. Binding curves for the best performing clones A3 and A3A5 are shown as solid lines. (CE) SPR sensograms measured for Anticalins A3, A3A5 and A3A5.1 on a BIAcore 2000 instrument. […]
50 μL of rhPSMA (5 μg/mL in TBS) was directly adsorbed onto the surface of a MaxiSorp 96-well plate overnight at 4° C. […] The plates were washed three times and bound Anticalins were detected with StrepTactin-AP as described further above. The data were analyzed using Prism 5 software (GraphPad) and absorption values (A) were fitted according to the formula ΔA=Aₘₐₓ[Lₜₒₜ]/(KD+[Lₜₒₜ]) with the concentration of the applied lipocalin variant [Lₜₒₜ] and the dissociation constant KD.
Specific binding activities of selected Anticalins toward rhPSMA as well as apparent affinity constants were initially determined by ELISA in 96-well Maxisorp plates coated with the recombinant wild-type PSMA protein. […]

T1 sequence (Q04609 44-750 limits assumed): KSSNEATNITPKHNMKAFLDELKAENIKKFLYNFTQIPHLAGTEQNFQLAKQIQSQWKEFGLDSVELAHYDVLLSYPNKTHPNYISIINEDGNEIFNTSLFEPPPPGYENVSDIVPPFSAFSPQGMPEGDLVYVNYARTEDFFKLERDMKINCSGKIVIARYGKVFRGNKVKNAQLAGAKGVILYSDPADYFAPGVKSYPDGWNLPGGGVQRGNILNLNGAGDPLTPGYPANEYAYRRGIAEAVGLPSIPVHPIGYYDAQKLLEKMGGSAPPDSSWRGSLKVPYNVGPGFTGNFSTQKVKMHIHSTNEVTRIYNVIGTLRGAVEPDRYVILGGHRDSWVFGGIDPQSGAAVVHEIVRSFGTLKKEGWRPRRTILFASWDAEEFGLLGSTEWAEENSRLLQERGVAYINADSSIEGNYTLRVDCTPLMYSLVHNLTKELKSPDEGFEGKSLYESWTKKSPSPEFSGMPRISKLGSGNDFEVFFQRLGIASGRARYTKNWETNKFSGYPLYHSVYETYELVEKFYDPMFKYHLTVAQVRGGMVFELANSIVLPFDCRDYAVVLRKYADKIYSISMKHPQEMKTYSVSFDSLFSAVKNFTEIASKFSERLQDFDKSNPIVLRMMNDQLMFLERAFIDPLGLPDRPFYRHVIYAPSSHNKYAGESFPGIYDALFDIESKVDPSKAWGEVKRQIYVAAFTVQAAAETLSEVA

Row | Binder | EC50 (read off the curve) [nM]
1 | B1 | ~10
2 | B2 | ~6
